Experiment [1] deals with T1, N+20/C-27 peptide (20 amino acids added onto the N-terminus and 27 deleted from the C-terminus of PSMGFR).
T1 peptide: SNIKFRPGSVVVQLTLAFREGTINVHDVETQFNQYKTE
As to the kind of experiment: ELISA (FIG. 65A). The source says: The antibodies being tested were derived from animals immunized with the N+20/C−27 peptide. The first selection criteria was to confirm that the antibodies bound to the immunizing N+20/C−27 peptide. […] Although these antibodies were raised against the N+20/C−27 peptide, all but one, 45C11, still bind to the PSMGFR peptide. […] 1E4 was able to bind to the N+20/C−27 peptide, the PSMGFR and the N−10 peptide, consistent with the idea that its epitope must lie within the […] sequence. […] The color of the bars for each antibody in the ELISA graph are color coded to match the deductive cognate sequence, or a portion thereof, of that antibody.
This same ELISA assay was performed on the antibodies of the invention (FIG. 64-66 and FIG. 201). Note that only 20A10 exactly matches the binding profile of MNC2 and MNE6. 25E6, 28F9 and 18G12 are all able to bind to the N−10 peptide. 18B4 is the only antibody raised against the PSMGFR peptide that requires the 10 most N-terminal amino acids of the peptide. The color of the bars for each antibody in the ELISA graph are color coded to match the deductive cognate sequence, or a portion thereof, of that antibody. In addition, another set of antibodies was assayed by ELISA (FIG. 201). Of this set, B12, B2, B7, B9, 8C7F3, and H11 bound to the PSMGFR peptide, bound to the N−10 peptide, but not to the C−10 peptide (FIG. 201).
For orientation: ELISA stands for enzyme-linked immunosorbent assay.

In experiment [2] the target is T2, C-10 peptide (PSMGFR minus 10 amino acids from the C-terminus).
T2 construct: also called C-10 PSMGFR; PSMGFR C-10
T2 peptide: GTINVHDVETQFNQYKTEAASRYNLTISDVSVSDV
The experiment is described as follows: ELISA.

The target in experiment [3] is T3, N-10 peptide (PSMGFR minus 10 amino acids from the N-terminus).
T3 construct: also called N-10 PSMGFR; PSMGFR N-10
T3 peptide: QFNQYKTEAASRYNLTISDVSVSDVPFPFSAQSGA
As to the kind of experiment: ELISA.

Experiment [4] concerns the target T4, PSMGFR peptide (Primary Sequence of the MUC1 Growth Factor Receptor).
T4 construct: synthetic peptide immobilised on ELISA plates; also called MUC1* peptide; MUC1* extra cellular domain peptide
T4 peptide: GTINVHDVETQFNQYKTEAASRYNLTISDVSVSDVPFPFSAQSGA
The experiment is described as follows: ELISA (FIG. 65).

The next experiment concerns the target T5, N-26 peptide.
T5 peptide: ISDVSVSDVPFPFSAQSGA
The experiment is described as follows: ELISA (FIG. 69). Here is the method: (§1) In order to further refine the epitopes to which each antibody binds, a series of smaller peptides derived from the PSMGFR sequence were synthesized: N−30 (SEQ ID NO:7), N−26 (SEQ ID NO:6), N−19 (SEQ ID NO:4), N−10/C−5 (SEQ ID NO:8), N−19/C−5 (SEQ ID NO:9). Each of the antibodies was tested in an ELISA assay for their ability to bind to this refined set of peptides, plus PSMGFR, N−10 and C−10 peptides (FIG. 67-69).

Experiment [5] addresses T2, C-10 peptide (PSMGFR minus 10 amino …). As to the kind of experiment: ELISA (FIG. 69). Here is the method: as §1
The next experiment has as its target T6, N-19/C-5 peptide.
T6 peptide: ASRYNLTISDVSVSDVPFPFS
As to the kind of experiment: ELISA (FIG. 69). On the procedure:
as §1

Another experiment has as its target T7, N-30 peptide.
T7 peptide: SVSDVPFPFSAQSGA
As to the kind of experiment: ELISA (FIG. 69). Here is the method: as §1

Another experiment addresses T8, N-19 peptide.
T8 peptide: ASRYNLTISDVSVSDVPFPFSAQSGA
As to the kind of experiment: ELISA (FIG. 69). On the procedure:
as §1

The next experiment has as its target T9, N-10/C-5 peptide.
T9 peptide: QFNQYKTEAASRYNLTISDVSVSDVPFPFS
As to the kind of experiment: ELISA (FIG. 69). Here is the method:
as §1

Experiment [6] has as its target T10, N+9/C-9 peptide (9 amino acids added onto the N-terminus and 9 deleted from the C-terminus of PSMGFR).
T10 peptide: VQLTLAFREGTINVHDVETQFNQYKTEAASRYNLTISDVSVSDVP
As to the kind of experiment: ELISA.

The target in experiment [7] is T10, N+9/C-9 peptide (9 amino acids added …). As to the kind of experiment: ELISA (FIG. 66A).

The source of these data is patent US20220184120A1 (MINERVA BIOTECHNOLOGIES, published 2022).

Residue numbers refer to the chain shown, from its start.

B1: 1E4 mouse monoclonal antibody (antibody, V domains shown)
VH: QVQLQQSGAELVRPGSSVKISCKASGYAFSTYWMNWVKQRPGQGLEWIGQIYPGDSDTNYNGKFKGKATLTADKSSNTAYMQLSSLTSEDSAVFFCARGNHASMDYWGQGTSVTVSS
VL: DVVMTQTPLSLPVSLGDQASISCRSSQSLVHSNGNTYLHWYLQKPGQSPKLLIYKVSNRFSGVPDRFSGSGSGTDFTLKISRVEAEDLGVYFCSQKTHVPWTFGGGTKLEIK
notes: raised against N+20/C-27; also called MN-1E4; N+20/C-27 antibody 1E4
Regarding B1, the binding result in experiment [1], in experiment [2], in experiment [3] and in experiment [4] was “binds” each time.

B2: 39H5 mouse monoclonal antibody (antibody, V domains shown)
VH: QIQLVQSGPELKKPGETVKISCKASGYTFTNYGMNWVKQAPGKGLKWMGWINTYTGEPTYVGDFKGRFAFSLETSASTAYLQINNLKNEDTATYFCVRGIHGYVDYWGQGTTLTVSS
VL: B1 VL with V3L, L29I, S32R, H39E, F92Y, S94F, K96G, T97S, V99L
notes: raised against N+9/C-9; also called N+9/C-9 antibody 39H5
B2: the binding result (in the experiment with N-26 peptide; in [5]; with N-19/C-5 peptide; in the experiment with N-30 peptide; with N-19 peptide; with N-10/C-5 peptide) was “no binding” each time. For the same molecule, the binding result in [6] is “binds”.

B3: 3C5 mouse monoclonal antibody (antibody, V domains shown)
VH: QIQLVQSGPELKKPGETVKISCKASGYTFTNYGMNWVKQAPGKGLKWMGWINTYTGKPTYADDFKGRFAFSLETSASTAYLQINNLKNEDTATYFCARGGLDGYYGYWGQGTTLTVSS
VL: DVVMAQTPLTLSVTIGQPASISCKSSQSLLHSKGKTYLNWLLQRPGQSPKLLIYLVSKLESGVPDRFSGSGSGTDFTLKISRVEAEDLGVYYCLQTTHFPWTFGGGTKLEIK
notes: raised against N+9/C-9; also called N+9/C-9 antibody 3C5
For B3, the binding result in experiment [3] is recorded as “no binding”; in experiment [7] it was “binds”.
